Data published in article PMC5388391.

B1: Alas2 variant 1 (CA), EMSA (dsDNA)
DNA 1: TCTCTCCCATGCCCTGGGCTC
DNA 2: GAGCCCAGGGCATGGGAGAGA
B2: Alas2 variant 2 (CT), EMSA (dsDNA)
DNA 1: TCTCTCCCAAGCCCTGGGCTC
DNA 2: GAGCCCAGGGCTTGGGAGAGA
B3: Alas2_fp (CG) (dsDNA)
DNA 1: TTCTCTCCCACGCCCTGGGCTC
DNA 2: GAGCCCAGGGCGTGGGAGAGA
modifications: 5' fluorescein-dT (/5FluorT/) preceding S51, written as T
B4: beta-globin (Hbb promoter, Category II, TG) (dsDNA)
DNA 1: TAGAGCCACACCCTGGTAAG
DNA 2: CTTACCAGGGTGTGGCTCTA
B5: Alas2 variant 3 (AG), EMSA (dsDNA)
DNA 1: TCTCTCCCACTCCCTGGGCTC
DNA 2: GAGCCCAGGGAGTGGGAGAGA
B6: Alas2 (Category I, CG), EMSA (dsDNA)
DNA 1: TCTCTCCCACGCCCTGGGCTC
DNA 2: GAGCCCAGGGCGTGGGAGAGA

Tests used:
[1] = biological target: T1, Nan-KLF1 zinc finger domain (mouse (murine), Nan mutant, UniProt P46099 243-358, E321D); test: EMSA
[2] = biological target: T1, Nan-KLF1 zinc finger domain; test: fluorescence polarization
[3] = biological target: T2, KLF1 zinc finger domain (WT) (mouse (murine), UniProt P46099 243-358); test: fluorescence polarization
[4] = biological target: T2, KLF1 zinc finger domain (WT); test: EMSA

T2 sequence (P46099 243-358): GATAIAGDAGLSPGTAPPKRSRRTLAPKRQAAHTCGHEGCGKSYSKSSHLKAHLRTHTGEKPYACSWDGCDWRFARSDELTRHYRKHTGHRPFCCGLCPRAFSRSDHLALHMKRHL
T1 sequence (P46099 243-358 E321D): as the sequence (P46099 243-358) above, with E79D counted along it

Binder | binding result [1] | binding result [4] | further results
B1 | binds |  | 
B2 | binds |  | 
B3 |  |  | Kd [2]: 130 nM; Kd [3]: 150 nM
B4 |  | binds | 
B5 | binds |  | 
B6 | binds | binds | 
